Measured values published in the supplement of paper PMC9170038.

Test system: MS2 coat protein
Test: apparent KD of MS2 coat protein; designed switch direction (-1 OFF switch, 1 ON switch): 1; higher = weaker reporter binding
In short: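 The reported apparent KD is a per-design median over clusters, from curve fits of normalised cluster fluorescence. Protein titrations used SNAP-549-labelled MS2 coat protein, doubled from 0.7 or 1.5 nM to 3 µM, in Tris-HCl pH 7.5 buffer with KCl, MgCl2, BSA, DTT, tRNA and Tween-20, with no input, 200 uM small-molecule ligand, or an oligonucleotide input. The RNA switches were transcribed on Illumina chips by stalled E. coli RNA polymerase.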

[1] = input ligand: microRNA oligo, concentration not stated
[2] = Eterna round: R95, input ligand: FMN 200 uM
[3] = Eterna round: R95, input ligand: microRNA oligo, concentration not stated
[4] = Eterna round: R95, input ligand: none

| Sequence | apparent KD of MS2 coat protein (input ligand: FMN 200 uM) | apparent KD of MS2 coat protein [1] | apparent KD of MS2 coat protein (input ligand: none) | apparent KD of MS2 coat protein [2] | apparent KD of MS2 coat protein [3] | apparent KD of MS2 coat protein [4] |
| --- | --- | --- | --- | --- | --- | --- |
| GCCGUAAACAUGAGGAUCACCCAUGUAAACGCGAGAGUGGAUGAGGAUAUCGAUGGGUUUCCCGUCGAGAAGGCGUGGGUCGGC [JL SSNG3 3.99] (Eterna round: R96, puzzle: Same State NG 3) | 36.2 nM | 31.8 nM | 46.1 nM |  |  |  |
| AAUUAUUAACAUGAGGAUCACCCAUGUAUUAUUAUUAACAAGCUUUGCUCUACAUGGGUGCUCGUCUUAUUUAUUAA [AthenaIerokomos] (puzzle: Sensor for hsa-mir-208a version 2) |  |  |  | 13.7 nM | 68.6 nM | 32.5 nM |
| GCACUCCAAGGAGCUGCGACAUGAGGAUCACCCAUGUAAUCACAGGAUAUGCGAUUCCGAAUUUUGCAGAAGGGUGAUAAGAAC [Ratele] (Eterna round: R96, puzzle: Same State NG 3) | 139 nM | 18 nM | 106 nM |  |  |  |
| ACUAAAACUGCAGGAUAUGUCCGGAACUCCGUUACAGAAGGGCAACGCACUGUUGAGGGCACGACAUGAGGAUCACCCAUGUAG [Eternabot solution 46] (Eterna round: R96, puzzle: Same State NG 1) | 20.9 nM | 22.5 nM | 26.8 nM |  |  |  |
| GGCACAGCGUGAGGAUAUCGGUACGCACGUAGUCGAGAAGGUACCUGAAAUGGUACACAUGAGGAUCACCCAUGUGACUGGGCA [Eternabot solution 14] (Eterna round: R96, puzzle: Same State NG 1) | 40.7 nM | 27.1 nM | 41.6 nM |  |  |  |
| GUAGCAUACCGAGGAUAUUCAUACAUGAGGAUCACCCAUGUUAUUAUAGGACGAUUACGUCCUUGGGAGAAGGCGGAAUGCUAC [Xeonanis - 20 Mod29] (Eterna round: R96, puzzle: Same State NG 2) | 10.2 nM | 11.8 nM | 15.1 nM |  |  |  |
| GUGGAGGGUUGAGGAUAUUGAUUGCAUAUGUUUAACAUGAGGAUCACCCAUGUGGGUUGCGGUUUCGAGAAGGUAGGUUGCUGG [salish99_SSNG2_r04_042] (Eterna round: R96, puzzle: Same State NG 2) | 80.8 nM | 59.4 nM | 72.2 nM |  |  |  |
| AACAAGCACAUGAGGAUCACCCAUGUGAGAAUAAAACCCUCAUAGGAUAUCCGCGGUUAACUCCCGGAGAAGGGUGAGACUCCU [Edtiedus] (Eterna round: R96, puzzle: Same State NG 3) | 266 nM | 429 nM | 390 nM |  |  |  |
| GGUCCAGCCUGAGCUGGACAAAAGCAUGUACAUGAGGAUCACCCAUGUCAUGUACAAGCUUUUUGCUCGUCAUAAAU [Mat - hsa-mir-208a - 96] (puzzle: Sensor for hsa-mir-208a) |  |  |  | 702 nM | 13.1 nM | 668 nM |
| GGGCCAGCUUUUGCUGGGCCUUCGCUUGCACAUGAGGAUCACCCAUGUCGUGUACACGCUUCCUGCCCGUCUUUUUU [Photon Torp-18] (puzzle: Sensor for hsa-mir-208a) |  |  |  | 21.2 nM | 13.6 nM | 21.8 nM |
| GCGGUCUGACAUGAGGAUCACCCAUGUGGAAUAAAUACGGGUUAGGAUAUCUUGAGGAUCACCCAAGAGAAGGGAUGGACCGCU (Eterna round: R96, puzzle: Same State NG 3) | 32.1 nM | 22.8 nM | 38.4 nM |  |  |  |
| GUUACAUGAGGAUCACCCAUGUAUGUGUGGGAGUAAGUGUCUUAGGAUAUCUAGUAUUAAAUUUAAGAGAAGGAAGAUUGUUGU [JMF's solution 57] (Eterna round: R96, puzzle: Same State NG 3) | 140 nM | 78.9 nM | 110 nM |  |  |  |
| CUGAGCAAUCAAGGAUAUCACGUCGAUUAGACGUGAGAAGGUGAUCAUUACAUGAGGAUCACCCAUGUAUUACAUGGAGCUCAG [Brourd's SSNG1/1-A2 mod 2] (Eterna round: R96, puzzle: Same State NG 1) |  | 833 nM |  |  |  |  |
| UUUAGUUGCGGGCAGGAUAUGUAUUAAAAUACAUGAGGAUCACCCAUGUGGGACCGAAAAGGUCUACAGAAGGGCCAAUCGCGAC [Laonerce - 21] (puzzle: Same State 2) |  |  |  | 17.1 nM | 53.3 nM | 77.1 nM |
| UUAAUUAAUUAAUUAUACAUGAGGAUCACCCAUGUAAGUGAUCAGGAUAUCAGCUCGAUUAGAGCUGAGAAGGGAUACAUGUAA [SSNG3/13-A2] (Eterna round: R96, puzzle: Same State NG 3) | 142 nM | 164 nM | 191 nM |  |  |  |
| GGAGCCGGUACUGAGGAUAUUCAUUUUAAAACAUGAGGAUCACCCAUGUAGGCCAGAAGGCCUUGGGAGAAGGCAGACCAGCUCG [Atgexeedri - 6] (puzzle: Same State 2) |  |  |  | 20.9 nM | 217 nM | 369 nM |

| Sequence | apparent KD of MS2 coat protein (input ligand: FMN 200 uM) | apparent KD of MS2 coat protein [1] | apparent KD of MS2 coat protein (input ligand: none) | apparent KD of MS2 coat protein [2] | apparent KD of MS2 coat protein [3] | apparent KD of MS2 coat protein [4] |
| --- | --- | --- | --- | --- | --- | --- |
| ACCCGCGACGGAGGAUAUGGGCACUCGGCGAAAUAAACCGCCAUAACAUGAGGAUCACCCAUGUCCCAGAAGGCCGUCGCAAUC [Anlelaen] (Eterna round: R96, puzzle: Same State NG 2) | 81 nM | 154 nM | 473 nM |  |  |  |
| AUUGCUGUCACAGGAUAUCAUGCGGAAAUCGCGUGAGAAGGGUGGACUCUGUCAUUCACGGAGGACAUGAGGAUCACCCAUGUG [SS NG10LRO19] (Eterna round: R96, puzzle: Same State NG 1) | 66.3 nM | 8.78 nM | 22.3 nM |  |  |  |
| GCCAUCGCAUGAGGAUAUGGCACCGUUUCGGUGCCAGAAGGCAUGUCGAAUGACAUGAGGAUCACCCAUGUAGUAUAGAUGGCA [JL Fiskers NG1ss - 33 mod 10] (Eterna round: R96, puzzle: Same State NG 1) | 59 nM | 377 nM | 851 nM |  |  |  |
| AAAAGUUGCGGGCAGGAUAUGUAUUAAAAUACAUGAGGAUCACCCAUGUGCGGGUAUAACACCCGACAGAAGGGCCAAUCGCGAC [Mat - Same State 2 - Mod of UCT - D95] (puzzle: Same State 2) |  |  |  | 29.6 nM | 160 nM | 226 nM |
| GUUACAUGAGGAUCACCCAUGUAUGUGUGGGAGUAAGUGUCUUAGGAUAUCUAUGAUUUAAAUUAAGAGAAGGAAGAUUGUUGU [JMF's solution 11] (Eterna round: R96, puzzle: Same State NG 3) |  | 84.2 nM |  |  |  |  |
| GGUGCCAAAUAAGCCUACAUGAGGAUCACCCAUGUAUGUAGGCAGGAUAUCGUUUGCAAAGCAAACGAGAAGGGCCUAGGCACC [Mat - Same State NG 3 - JL Mod - D62] (Eterna round: R96, puzzle: Same State NG 3) | 19.1 nM | 18.5 nM | 35.2 nM |  |  |  |
| AGUCCAGCCUAAGCUGGACAAAAGCAUGUACAUGAGGAUCACCCAUGUUCAUGUACAAGCUUUUUGCAAGUCAAAAG [Mat - hsa-mir-208a - Mod of JL - 76] (puzzle: Sensor for hsa-mir-208a) |  |  |  | 350 nM | 28.1 nM | 664 nM |
| UAAUAAAAGGAUAUACAUGAGGAUCACCCAUGUCCGUCUGCCAAGGAUAUCUAGGAUCAAGCAGCAGAGAAGGUGGCACGCCAC [Eternabot solution 35] (Eterna round: R96, puzzle: Same State NG 3) | 22.3 nM | 17.2 nM | 18.3 nM |  |  |  |
| CCGAUUGAUGGAGGAUAUGGAGCCUUAUUGGCUCCAGAAGGCUAAUAACAUGAGGAUCACCCAUGUCGGCGGUCUAAUGACCGA [Eli NG1ss - 54] (Eterna round: R96, puzzle: Same State NG 1) | 36.1 nM | 57.5 nM | 69.1 nM |  |  |  |
| AGCCGAAGCGCAGGAUAUACAUGUAUACAUGAGGAUCACCCAUGUAGCAACACGUGGUAGUGAUUGUAGAAGGGUGCUCGGCGC [Omei SS(NG)2 Cv15] (Eterna round: R96, puzzle: Same State NG 2) |  | 18.6 nM |  |  |  |  |
| CAUCGUUUGAUAGGAUAUCGCUAUACAUGAGGAUCACCCAUGUUUACCACGCUGGUUUUUCAUACCGAGAAGGAUUCUGAUGUU [salish99_SSNG02_r04_015] (Eterna round: R96, puzzle: Same State NG 2) | 36 nM | 25.2 nM | 38.6 nM |  |  |  |
| UUUAGGAGUCAAGGAUAUGCUACCGUUUCGGUAGCAGAAGGUGAUCACAUGAGGAUCACCCAUGUAUGCAUGCGUGAGCGUGCU [JL SSNG1 3.62] (Eterna round: R96, puzzle: Same State NG 1) |  | 24.1 nM |  |  |  |  |
| CCAAAUUGAAUCCACAUGAGGAUCACCCAUGUCCAACCGGUCUAGGAUAUCACAGCAAGCGCGUGUGAGAAGGAGAAAACAAGC [Eternabot solution 34] (Eterna round: R96, puzzle: Same State NG 3) | 42.1 nM | 21 nM | 43.4 nM |  |  |  |
| UUAACAUGACGAGGAUAUCAUUUAUAUCUUGAUUGAGAAGGCGUUCUUUUUUUUACCUAACAUGAGGAUCACCCAUGUGACAGU [JR_SSNG1_Sub051] (Eterna round: R96, puzzle: Same State NG 1) | 12.4 nM | 13.7 nM | 17.6 nM |  |  |  |
| GCCGGCUAAUGAGGAUAUGGCACCUUAUUGGUGCCAGAAGGCAUGUCAAUUGACAUGAGGAUCACCCAUGUAUUAUAGUUGGCG [salish99_SSNG1_r04_603] (Eterna round: R96, puzzle: Same State NG 1) |  | 211 nM |  |  |  |  |
